# Measurements: paper PMC3409459, “Absorption, distribution, metabolism and excretion of peginesatide, a novel erythropoiesis-stimulating agent, in rats” (Xenobiotica; the Fate of Foreign Compounds in Biological …, 2011)
# Like-named read-outs stand apart in the source and are kept apart here.
# What was measured:
# [1] = Plasma total radioactivity pharmacokinetics after single IV [^14C]-peginesatide (LSC); type: in vivo, male Sprague-Dawley rats; settings: single 5 mg-kg^-1 IV [^14C]-peginesatide, n=3
# Procedure: Total captured radioactivity was subsequently measured via LSC.
# The plasma samples were analyzed for total radioactivity using LSC.
# Noncompartmental PK parameters for peginesatide and metabolites were generated using WinNonlin ver. 4.0, Pharsight Corporation (Mountain View, CA). The maximum plasma concentration (Cmax) and their times of occurrence (tmax) were obtained directly from the mean plasma concentration vs. time profiles. The areas under the plasma concentration-time curves […] were estimated by the linear trapezoidal rule - by adding all the area portions under the curve from time zero to the time of the last observed plasma concentration (tn). Elimination rate constants (kz) were estimated by fitting a linear regression of log mean concentration against time data in the terminal exponential phase (at least 3 data points). Apparent terminal half-life (t1/2) was calculated as In2/λz. The AUC0-inf was calculated as the sum of AUC0-t and Cobs/λz, where Cobs, was the actual concentration at the time of the last quantifiable concentration. The plasma clearance (CL) for peginesatide was estimated as the ratio of dose/ AUC0-inf. The mean residence time (MRT) was calculated as the ratio of AUMC0-inf/AUC0-inf, where AUMC0-inf was the area under the first moment curve from the time zero to infinity. The volume of distribution at steady state (Vss) was estimated as CL x MRT.
# [2] = parameters: species or system male Sprague-Dawley rats; settings: rat, in vivo, iv
# Procedure: The metabolite profiling in the biological samples from rats dosed with [^14C]-peginesatide was performed by high-performance liquid chromatography (HPLC). The radiolabeled materials in the samples of plasma and aqueous homoge-nates of tissues and feces were extracted with five volumes of methanol containing 0.1% of trifluoroacetic acid (TFA), mixed and centrifuged at 1500g at 4°C for l0 min to obtain supernatant. A portion of the supernatant was counted to estimate the extraction recovery of [^14C]-peginesatide and its related compounds in the biological samples. The rest of the supernatant was evaporated to dryness under a nitrogen gas stream. The residue was re-dissolved in a small volume of equal parts mobile phase [MP(A)] and B [MP(B)] for chromatographic analysis. The HPLC system (Simadzu, Kyoto, Japan) consisted of a LC-lOADvp pump, a CTO-lOACvp column oven, an SPD-lOAvp UV detector, and an SCL-lOAvp system controller. […] The flow rate was 0.5mL/min, and the peaks were monitored by a UV absorption detector at 215 run. […] The effluentwas collected into 0.5mL size fractions, followed by counting of the radioactivity (LSC). […]
# Noncompartmental PK parameters for peginesatide and metabolites were generated using WinNonlin ver. […] Apparent terminal half-life (t1/2) was calculated as In2/λz. The AUC0-inf was calculated as the sum of AUC0-t and Cobs/λz, where Cobs, was the actual concentration at the time of the last quantifiable concentration. […] The mean residence time (MRT) was calculated as the ratio of AUMC0-inf/AUC0-inf, where AUMC0-inf was the area under the first moment curve from the time zero to infinity. […]
# The plasma metabolic profile of [^14C]-peginesatide was determined by the HPLC analysis described above and measurement of radioactivity using LSC. […] The moieties detected were designated as peginesatide or mono-PEG (peginesatide with one PEG chain), with the remaining radioactivity designated as “Other” The classification of Other is anticipated to encompass smaller PEGylated-peptide and peptide/ amino acid components. […]
# [3] = ref Fan et al. 2006; cited from earlier work
# Procedure: Multiple clearance mechanisms may be involved with peginesatide as clearance involves glomerular filtration; a presumably non-saturable elimination. […] High concentrations of radioactivity were also measured in the liver. In addition, negligible excretion (<0.1%) of the radiolabel was d ...
# [4] = cited from earlier work
# Procedure: Erythropoietin is deficient in patients with CKD-associated anemia. Administration of ESAs, such as peginesatide, leads to activation of the appropriate signaling at the EPO receptor ([Fan et al. 2006]). […] The principal findings in the single and repeat dose toxicity studies are primarily attributed to the pharmacological effects of peginesatide and secondary sequelae when an ESA is administered to an initially nor ...
# [5] = In vivo metabolite profiling, plasma and tissues at 14 days; parameters: species or system male Sprague-Dawley rats; settings: rat, iv, 5 mg/kg
# Procedure: The metabolite profiling in the biological samples from rats dosed with [^14C]-peginesatide was performed by high-performance liquid chromatography (HPLC). The radiolabeled materials in the samples of plasma and aqueous homoge-nates of tissues and feces were extracted with five volumes of methanol containing 0.1% of trifluoroacetic acid (TFA), mixed and centrifuged at 1500g at 4°C for l0 min to obtain supernatant. A portion of the supernatant was counted to estimate the extraction recovery of [^14C]-peginesatide and its related compounds in the biological samples. The rest of the supernatant was evaporated to dryness under a nitrogen gas stream. The residue was re-dissolved in a small volume of equal parts mobile phase [MP(A)] and B [MP(B)] for chromatographic analysis. The HPLC system (Simadzu, Kyoto, Japan) consisted of a LC-lOADvp pump, a CTO-lOACvp column oven, an SPD-lOAvp UV detector, and an SCL-lOAvp system controller. […] A mixture of 0.1% TFA aqueous solution and 0.1% TFA in methanol solution were used for MP(A) and MP(B), respectively. The flow rate was 0.5mL/min, and the peaks were monitored by a UV absorption detector at 215 run. The time for the gradient elution was as follows: the concentration of MP(B) was increased from 50 to 80% and from 80 to 83% over a period of 2-10min and 10-20min, respectively. […] The effluentwas collected into 0.5mL size fractions, followed by counting of the radioactivity (LSC). Under these conditions unchanged peginesatide and mono-PEG eluted at approximately 22 and 10 min, respectively.
# A single dose of [^14C]-peginesatide at 5 mg·kg^−1 was administered to male Sprague-Dawley rats (n = 9) by IV injection. At 14 days after dosing, animals were euthanized and samples of plasma, liver, spleen, kidneys, testes, and bone marrow were collected. Plasma and tissue extract samples were analyzed for levels of total radioactivity, peginesatide, and potential metabolites using LSC. Tissue homogenates (prepared in saline at a concentration of 20% [w/v] for the liver, kidneys and testes and 10% [w/v] for the spleen and bone marrow) were analyzed for radioactivity by LSC following combustion. The concentration of radioactivity in the blood, plasma, and tissues was calculated and expressed as ug equiv·g^-1 or mL based on the LSC counts and the specific activity of the dosing solution.
substance,measurement,setting,value
Peginesatide,"Cmax, total radioactivity",[1],150 ug equiv·mL^−1
same,Tmax,[2],0.25 h
same,t½α,[2],29.1 h
same,t½β,[2],110 h
same,clearance in a rat chronic renal insufficiency model compared to a rat with normal renal function,[3],twofold lower clearance
same,reticulocytes and hemoglobin levels,"[4]; single IV administration in humans, ref Stead et al. 2006",dose-dependent increases in reticulocytes and hemoglobin levels
same,reticulocytes and hemoglobin levels,"[4]; single IV administration in rats, ref Fan et al. 2006",dose-dependent increases in reticulocytes and hemoglobin levels
same,"Day 14 concentration, Bone marrow",[5],3.22 μg equiv·g^−1 or mL
same,"Day 14 concentration, Liver",[5],5.63 μg equiv·g^−1 or mL
same,"Day 14 concentration, Plasma",[5],1.94 μg equiv·g^−1 or mL
same,"Day 14 concentration, Spleen",[5],14.3 μg equiv·g^−1 or mL
same,"Day 14 concentration, Testes",[5],2.68 μg equiv·g^−1 or mL
same,"percent radioactivity, Bone marrow, Day 14",[5],58.2%
same,"percent radioactivity, Kidneys, Day 14",[5],54.1%
same,"percent radioactivity, Liver, Day 14",[5],63.2%
same,"percent radioactivity, Spleen, Day 14",[5],61.2%
same,"percent radioactivity, Testes, Day 14",[5],66.0%
same,"share of total tissue radioactivity across liver, spleen, kidney, testes and bone marrow",[5],54-66%
